± gives the uncertainty stated by the source.
B1: Tumor protein p73, residues 487 to 549; numbered along this chain, O15350 (parent)
chain: YHADPSLVSFLTGLGCPNCIEYFTSQGLQSIYHLQNLTIEDLGALKIPEQYRMTIWRGLQDLK

Variants of: B1
Assay: abundance fitness (aPCA) (normalised: wild type 0, dead -1); higher = more abundant; growth selection in yeast, the domain comes from the species named
Details: Homo sapiens

In order of falling abundance fitness:
1. YHADPSLVSFLTGLGCPNCIEYFTSQGLISIYHLQNLTIEDLGALKIPEQYRMTIWRGLQDLK [Q29I]  0.142 ± 0.06
2. YHADPSLVSFLTGLGCPNCIEYFTSQGLQQIYHLQNLTIEDLGALKIPEQYRMTIWRGLQDLK [S30Q]  0.115 ± 0.041
3. YHADPSLVSFLTGLGCPNCIEYFTSQGLHSIYHLQNLTIEDLGALKIPEQYRMTIWRGLQDLK [Q29H]  0.102 ± 0.076
4. YHADPSLVSFLTGLGCPNCIEYFTSQGLDSIYHLQNLTIEDLGALKIPEQYRMTIWRGLQDLK [Q29D]  0.089 ± 0.089
5. YHADPSLVSFLTGLGCPNCIEYFTSQGLQTIYHLQNLTIEDLGALKIPEQYRMTIWRGLQDLK [S30T]  0.085 ± 0.073
6. YHADPSLVSFLTGLGCPNCIEYFTSQGLTSIYHLQNLTIEDLGALKIPEQYRMTIWRGLQDLK [Q29T]  0.066 ± 0.04
7. YHADPSLVSFLTGLGCPNCIEYFTSQGLSSIYHLQNLTIEDLGALKIPEQYRMTIWRGLQDLK [Q29S]  0.053 ± 0.033
8. YHADPSLVSFLTGLGCPNCIEYFTSQGLESIYHLQNLTIEDLGALKIPEQYRMTIWRGLQDLK [Q29E]  0.05 ± 0.038
9. YHADPSLVSFLTGLGCPNCIEYFTSQGLKSIYHLQNLTIEDLGALKIPEQYRMTIWRGLQDLK [Q29K]  0.05 ± 0.035
10. YHADPSLVSFLTGLGCPNCIEYFTSQGLLSIYHLQNLTIEDLGALKIPEQYRMTIWRGLQDLK [Q29L]  0.044 ± 0.028
11. YHADPSLVSFLTGLGCPNCIEYFTSQGLQSLYHLQNLTIEDLGALKIPEQYRMTIWRGLQDLK [I31L]  0.035 ± 0.037
12. YHADPSLVSFLTGLGCPNCIEYFTSQGLMSIYHLQNLTIEDLGALKIPEQYRMTIWRGLQDLK [Q29M]  0.03 ± 0.04
13. YHADPSLVSFLTGLGCPNCIEYFTSQGLQNIYHLQNLTIEDLGALKIPEQYRMTIWRGLQDLK [S30N]  0.025 ± 0.055
14. YHADPSLVSFLTGLGCPNCIEYFTSQGLQSMYHLQNLTIEDLGALKIPEQYRMTIWRGLQDLK [I31M]  0.012 ± 0.053
15. YHADPSLVSFLTGLGCPNCIEYFTSQGLPSIYHLQNLTIEDLGALKIPEQYRMTIWRGLQDLK [Q29P]  0.006 ± 0.037
16. YHADPSLVSFLTGLGCPNCIEYFTSQGLQSAYHLQNLTIEDLGALKIPEQYRMTIWRGLQDLK [I31A]  0.004 ± 0.043
17. YHADPSLVSFLTGLGCPNCIEYFTSQGLFSIYHLQNLTIEDLGALKIPEQYRMTIWRGLQDLK [Q29F]  -0.005 ± 0.056
18. YHADPSLVSFLTGLGCPNCIEYFTSQGLGSIYHLQNLTIEDLGALKIPEQYRMTIWRGLQDLK [Q29G]  -0.006 ± 0.03
19. YHADPSLVSFLTGLGCPNCIEYFTSQGLQSCYHLQNLTIEDLGALKIPEQYRMTIWRGLQDLK [I31C]  -0.011 ± 0.087
20. YHADPSLVSFLTGLGCPNCIEYFTSQGLVSIYHLQNLTIEDLGALKIPEQYRMTIWRGLQDLK [Q29V]  -0.016 ± 0.031
21. YHADPSLVSFLTGLGCPNCIEYFTSQGLQYIYHLQNLTIEDLGALKIPEQYRMTIWRGLQDLK [S30Y]  -0.016 ± 0.051
22. YHADPSLVSFLTGLGCPNCIEYFTSQGLQHIYHLQNLTIEDLGALKIPEQYRMTIWRGLQDLK [S30H]  -0.027 ± 0.065
23. YHADPSLVSFLTGLGCPNCIEYFTSQGLQKIYHLQNLTIEDLGALKIPEQYRMTIWRGLQDLK [S30K]  -0.03 ± 0.083
24. YHADPSLVSFLTGLGCPNCIEYFTSQGLQRIYHLQNLTIEDLGALKIPEQYRMTIWRGLQDLK [S30R]  -0.043 ± 0.025
25. YHADPSLVSFLTGLGCPNCIEYFTSQGLQCIYHLQNLTIEDLGALKIPEQYRMTIWRGLQDLK [S30C]  -0.062 ± 0.04
26. YHADPSLVSFLTGLGCPNCIEYFTSQGLRSIYHLQNLTIEDLGALKIPEQYRMTIWRGLQDLK [Q29R]  -0.063 ± 0.028
27. YHADPSLVSFLTGLGCPNCIEYFTSQGLQGIYHLQNLTIEDLGALKIPEQYRMTIWRGLQDLK [S30G]  -0.086 ± 0.03
28. YHADPSLVSFLTGLGCPNCIEYFTSQGLQSNYHLQNLTIEDLGALKIPEQYRMTIWRGLQDLK [I31N]  -0.086 ± 0.051
29. YHADPSLVSFLTGLGCPNCIEYFTSQGLQMIYHLQNLTIEDLGALKIPEQYRMTIWRGLQDLK [S30M]  -0.094 ± 0.22
30. YHADPSLVSFLTGLGCPNCIEYFTSQGLNSIYHLQNLTIEDLGALKIPEQYRMTIWRGLQDLK [Q29N]  -0.108 ± 0.21
31. YHADPSLVSFLTGLGCPNCIEYFTSQGLQSKYHLQNLTIEDLGALKIPEQYRMTIWRGLQDLK [I31K]  -0.11 ± 0.051
32. YHADPSLVSFLTGLGCPNCIEYFTSQGLQSEYHLQNLTIEDLGALKIPEQYRMTIWRGLQDLK [I31E]  -0.129 ± 0.045
33. YHADPSLVSFLTGLGCPNCIEYFTSQGLWSIYHLQNLTIEDLGALKIPEQYRMTIWRGLQDLK [Q29W]  -0.139 ± 0.035
34. YHADPSLVSFLTGLGCPNCIEYFTSQGLQSHYHLQNLTIEDLGALKIPEQYRMTIWRGLQDLK [I31H]  -0.156 ± 0.06
35. YHADPSLVSFLTGLGCPNCIEYFTSQGLQSGYHLQNLTIEDLGALKIPEQYRMTIWRGLQDLK [I31G]  -0.199 ± 0.038
36. YHADPSLVSFLTGLGCPNCIEYFTSQGLQSDYHLQNLTIEDLGALKIPEQYRMTIWRGLQDLK [I31D]  -0.269 ± 0.068
37. YHADPSLVSFLTGLGCPNCIEYFTSQGLQSFYHLQNLTIEDLGALKIPEQYRMTIWRGLQDLK [I31F]  -0.294 ± 0.21
38. YHADPSLVSFLTGLGCPNCIEYFTSQGLQFIYHLQNLTIEDLGALKIPEQYRMTIWRGLQDLK [S30F]  -0.423 ± 0.079
39. YHADPSLVSFLTGLGCPNCIEYFTSQGLQVIYHLQNLTIEDLGALKIPEQYRMTIWRGLQDLK [S30V]  -0.521 ± 0.05
40. YHADPSLVSFLTGLGCPNCIEYFTSQGLQPIYHLQNLTIEDLGALKIPEQYRMTIWRGLQDLK [S30P]  -0.629 ± 0.094
41. YHADPSLVSFLTGLGCPNCIEYFTSQGLQWIYHLQNLTIEDLGALKIPEQYRMTIWRGLQDLK [S30W]  -0.817 ± 0.085
42. YHADPSLVSFLTGLGCPNCIEYFTSQGLQIIYHLQNLTIEDLGALKIPEQYRMTIWRGLQDLK [S30I]  -1.01 ± 0.27

From the Human Domainome abundance scans (Beltran et al. 2025)
